In patent US20110189095A1 (University of Texas, published 2011):
Blank lines part the entries; values can stand above or below the binder they belong to. Bridge positions count the residues as written; N and C are the ends. Ends that are not written are not given here.

B1: CRKL of DU145 cells (cell extract, membrane fraction, cell surface or serum-free condition medium) (other)
chain: MSSARFDSSDRSAWYMGPVSRQEAQTRLQGQRHGMFLVRDSSTCPGDYVLSVSENSRVSHYIINSLPNRRFKIGDQEFDHLPALLEFYKIHYLDTTTLIEPAPRYPSPPMGSVSAPNLPTAEDNLEYVRTLYDFPGNDAEDLPFKKGEILVIIEKPEEQWWSARNKDGRVGMIPVPYVEKLVRSSPHGKHGNRNSNSYGIPEPAHAYAQPQTTTPLPAVSGSPGAAITPLPSTQNGPVFAKAIQKRVPCAYDKTALALEVGDIVKVTRMNINGQWEGEVNGRKGLFPFTHVKIFDPQNPDENE
notes: Native protein from human DU145 prostate cancer cells; also called secreted CRKL; extracellular CRKL
B2: recombinant His-tag CRKL (rCRKL) (other)
chain: B1 chain
notes: Open reading frame of full-length CRKL cDNA cloned in pET28a, expressed in BL21; also called recombinant CRKL; rCKRL protein; not shown: His-tag from pET28a vector
B3: synthetic PSI-derived peptide NSTFLQEGMPTSA (SEQ ID NO:23) (peptide)
peptide: NSTFLQEGMPTSA
notes: also called β1 integrin PSI-derived peptide
B4: IL11 receptor of DU145 cells (receptor, human, UniProt Q14626 23-422, looked up)
chain: SSPCPQAWGPPGVQYGQPGRSVKLCCPGVTAGDPVSWFRDGEPKLLQGPDSGLGHELVLAQADSTDEGTYICQTLDGALGGTVTLQLGYPPARPVVSCQAADYENFSCTWSPSQISGLPTRYLTSYRKKTVLGADSQRRSPSTGPWPCPQDPLGAARCVVHGAEFWSQYRINVTEVNPLGASTRLLDVSLQSILRPDPPQGLRVESVPGYPRRLRASWTYPASWPCQPHFLLKFRLQYRPAQHPAWSTVEPAGLEEVITDAVAGLPHAVRVSARDFLDAGTWSTWSPEAWGTPSTGTIPKEIPAWGQLHTQPEVEPQVDSPAPPRPSLQPHPRLLDHRDSVEQVAVLASLGILSFLGLVAGALALGLWLRLRRGGKDGSPKPGFLASVIPVDRRPGAPNL
notes: whole, on cells; Unrelated transmembrane receptor, control of the co-immunoprecipitation
B5: β3 integrin of DU145 cells (receptor, human, UniProt P05106 27-788, looked up)
chain: GPNICTTRGVSSCQQCLAVSPMCAWCSDEALPLGSPRCDLKENLLKDNCAPESIEFPVSEARVLEDRPLSDKGSGDSSQVTQVSPQRIALRLRPDDSKNFSIQVRQVEDYPVDIYYLMDLSYSMKDDLWSIQNLGTKLATQMRKLTSNLRIGFGAFVDKPVSPYMYISPPEALENPCYDMKTTCLPMFGYKHVLTLTDQVTRFNEEVKKQSVSRNRDAPEGGFDAIMQATVCDEKIGWRNDASHLLVFTTDAKTHIALDGRLAGIVQPNDGQCHVGSDNHYSASTTMDYPSLGLMTEKLSQKNINLIFAVTENVVNLYQNYSELIPGTTVGVLSMDSSNVLQLIVDAYGKIRSKVELEVRDLPEELSLSFNATCLNNEVIPGLKSCMGLKIGDTVSFSIEAKVRGCPQEKEKSFTIKPVGFKDSLIVQVTFDCDCACQAQAEPNSHRCNNGNGTFECGVCRCGPGWLGSQCECSEEDYRPSQQDECSPREGQPVCSQRGECLCGQCVCHSSDFGKITGKYCECDDFSCVRYKGEMCSGHGQCSCGDCLCDSDWTGYYCNCTTRTDTCMSSNGLLCSGRGKCECGSCVCIQPGSYGDTCEKCPTCPDACTFKKECVECKKFDRGALHDENTCNRYCRDEIESVKELKDTGKDAVNCTYKNEDDCVVRFQYYEDSSGKSILYVVEEPECPKGPDILVVLLSVMGAILLIGLAALLIWKLLITIHDRKEFAKFEEERARAKWDTANNPLYKEATSTFTNITYRGT
notes: whole, on cells; Control of the co-immunoprecipitation; also called other integrins (anti-β3)

Columns and labels:
[1] = molecular target: B5; test: reciprocal co-immunoprecipitation, DU145 membrane fractions
[2] = molecular target: B4; test: as above
[3] = molecular target: T1, β1 integrin of DU145 cells (membrane fraction / cell surface) (human, UniProt P05556 21-798); test: as above
T1 construct: Native β1 chain of human DU145 cells

[4] = molecular target: T2, β5 integrin of DU145 cells (human, UniProt P18084 24-799); test: as above
T2 construct: whole, on cells; Control of the co-immunoprecipitation; also called other integrins (anti-β5)

[5] = molecular target: T3, αvβ5 integrin (Chemicon) (UniProt P06756 31-1048; P18084 24-799); test: CRKL on wells coated with integrin at 1 µg/well, anti-CRKL detection (FIG. 5)
T3 construct: Bought protein coated at 1 µg/well; also called control integrin
Procedure: (§1) Phage binding assays on purified proteins were carried out as described (Giordano et al. 2001). Recombinant proteins were coated on microtiter wells as previous described (Cardo-Vila et al., 2003; Smith and Scott, 1993). Briefly, proteins were immobilized on microtiter wells overnight at 4° C. 50 μl of 1 μg/ml in PBS. Wells were washed twice with PBS, blocked with PBS containing 3% BSA for 2 hours at room temperature, and incubated with 10⁹ T.U. wild-type tumor-homing phage ([…]; SEQ ID NO:1), scrambled phage ([…] (SEQ ID NO:26), […] (SEQ ID NO:27), […] (SEQ ID NO:29), […] (SEQ ID NO:30)), mutant phage ([…] (SEQ ID NO:25), […] (SEQ ID NO:28)), PSI-derived cyclic phage ([…]; SEQ ID NO:23) or fd-tet phage in 50 μl of PBS containing 1.5% BSA. After 1 hour at room temperature, wells were washed ten times with PBS and phage were recovered by bacterial infection. ELISA with polyclonal anti-CKRL confirmed the presence and concentration of the CKRL recombinant proteins on the wells. To test the binding of the tumor-homing phage to SH3 containing proteins, microtiter-wells were coated at 4° C. overnight with 250 μg/ml of recombinant gst-SH3 domains (CKRL-D1, CKRL-D2, grb2-D1, grb2-D2, Lyn, src; Pronomics), rCKRL protein, and negative controls gst or BSA. […] After 3 hours, binding of CKRL to integrins was detected by using an anti-CKRL antibody followed by an HRP-conjugated anti-rabbit IgG. […]

[6] = molecular target: T4, αvβ3 integrin (Chemicon) (UniProt P06756 31-1048; P05106 27-788); test: as above
T4 construct: Bought protein coated at 1 µg/well; also called control integrin
Procedure: as §1

[7] = molecular target: B2; test: ELISA, His-tag protein on coated synthetic peptide
Procedure: (§2) Synthetic tumor-homing peptide ([…]; SEQ ID NO:1) or PSI-derived peptide ([…]; SEQ ID NO:23) were coated on microtiter plates followed by blocking, and washing. The following recombinant His-tag proteins were added to the coated plates: rCRKL, rCRKL-SH2 domain, rCRKL-SH3 (N) domain, and rCRKL-SH3 (C) domain. An unrelated control protein (α2-Heremans-Schmid glycoprotein; AHSG) served as a negative control. The mixtures were incubated, washed, and labeled with the appropriate antibodies. Secondary antibodies conjugated to horse-radish peroxidase (HRP) were added followed by adding TMB substrate (Calbiochem), and analyzed by an automated ELISA reader (Bio-Tek). To determine the inhibitory activity of the tumor-homing peptide, the PSI-derived peptide, or the phage clone displaying the corresponding tumor-homing peptide were incubated with the rCRKL-SH3 (C) domain. Unrelated cyclic peptide sequences and insertless phage (fd-tet) served as negative controls. The admixtures were incubated and added to wells coated with the tumor-homing peptide. After incubation, the wells were washed, labeled with the appropriate antibodies, and processed as above.

[8] = molecular target: B2; test: ELISA, His-tag protein on coated synthetic peptide (FIG. 3A)
Procedure: as §2

T1 sequence (P05556 21-798 limits assumed): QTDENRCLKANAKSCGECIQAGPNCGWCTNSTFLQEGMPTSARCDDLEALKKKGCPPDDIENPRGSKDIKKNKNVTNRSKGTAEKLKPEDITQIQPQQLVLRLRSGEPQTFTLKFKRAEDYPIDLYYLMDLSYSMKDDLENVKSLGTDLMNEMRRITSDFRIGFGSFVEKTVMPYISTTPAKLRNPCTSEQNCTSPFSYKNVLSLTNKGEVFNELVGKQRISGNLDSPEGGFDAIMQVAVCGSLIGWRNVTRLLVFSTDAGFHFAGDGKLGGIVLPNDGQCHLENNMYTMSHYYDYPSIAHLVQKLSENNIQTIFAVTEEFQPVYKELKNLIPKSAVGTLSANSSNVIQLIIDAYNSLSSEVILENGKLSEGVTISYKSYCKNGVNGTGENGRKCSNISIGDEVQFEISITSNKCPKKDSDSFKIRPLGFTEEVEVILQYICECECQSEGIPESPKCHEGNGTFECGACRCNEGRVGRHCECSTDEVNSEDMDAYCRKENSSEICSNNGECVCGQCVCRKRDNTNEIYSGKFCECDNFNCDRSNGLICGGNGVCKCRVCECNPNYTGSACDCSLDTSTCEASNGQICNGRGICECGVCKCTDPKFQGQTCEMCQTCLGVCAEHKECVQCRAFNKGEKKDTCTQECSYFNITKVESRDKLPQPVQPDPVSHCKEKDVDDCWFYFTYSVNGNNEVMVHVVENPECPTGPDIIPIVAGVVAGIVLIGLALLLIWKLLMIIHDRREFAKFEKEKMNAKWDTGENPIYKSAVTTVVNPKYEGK
T3 sequence (P06756 31-1048, chain 1 of 2): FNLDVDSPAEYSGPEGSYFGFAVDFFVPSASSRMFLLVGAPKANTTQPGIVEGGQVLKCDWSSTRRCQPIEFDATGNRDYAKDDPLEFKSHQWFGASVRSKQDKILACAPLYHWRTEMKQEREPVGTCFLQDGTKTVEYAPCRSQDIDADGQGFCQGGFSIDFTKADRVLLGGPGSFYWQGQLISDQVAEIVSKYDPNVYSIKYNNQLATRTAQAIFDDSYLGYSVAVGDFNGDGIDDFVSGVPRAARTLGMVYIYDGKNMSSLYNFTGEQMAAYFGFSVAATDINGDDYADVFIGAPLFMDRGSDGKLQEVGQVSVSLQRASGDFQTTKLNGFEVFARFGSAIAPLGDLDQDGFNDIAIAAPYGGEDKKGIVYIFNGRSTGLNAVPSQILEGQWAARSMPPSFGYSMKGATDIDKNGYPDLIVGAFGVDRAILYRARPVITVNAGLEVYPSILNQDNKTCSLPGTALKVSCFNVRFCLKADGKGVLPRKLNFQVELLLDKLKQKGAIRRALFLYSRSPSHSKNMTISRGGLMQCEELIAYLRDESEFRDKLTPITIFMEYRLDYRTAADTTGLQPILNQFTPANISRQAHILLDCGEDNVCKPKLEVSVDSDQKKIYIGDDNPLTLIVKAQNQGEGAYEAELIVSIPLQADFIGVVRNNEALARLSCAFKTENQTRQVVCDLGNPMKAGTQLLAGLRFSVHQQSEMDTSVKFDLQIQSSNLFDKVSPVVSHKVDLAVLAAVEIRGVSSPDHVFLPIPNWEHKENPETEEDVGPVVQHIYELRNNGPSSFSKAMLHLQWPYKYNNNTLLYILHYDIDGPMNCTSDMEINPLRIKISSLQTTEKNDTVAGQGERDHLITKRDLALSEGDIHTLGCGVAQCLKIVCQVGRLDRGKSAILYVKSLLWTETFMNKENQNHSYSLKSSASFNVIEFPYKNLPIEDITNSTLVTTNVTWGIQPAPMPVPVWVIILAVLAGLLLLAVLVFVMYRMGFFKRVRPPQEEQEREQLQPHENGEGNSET
T3 sequence (P18084 24-799, chain 2 of 2): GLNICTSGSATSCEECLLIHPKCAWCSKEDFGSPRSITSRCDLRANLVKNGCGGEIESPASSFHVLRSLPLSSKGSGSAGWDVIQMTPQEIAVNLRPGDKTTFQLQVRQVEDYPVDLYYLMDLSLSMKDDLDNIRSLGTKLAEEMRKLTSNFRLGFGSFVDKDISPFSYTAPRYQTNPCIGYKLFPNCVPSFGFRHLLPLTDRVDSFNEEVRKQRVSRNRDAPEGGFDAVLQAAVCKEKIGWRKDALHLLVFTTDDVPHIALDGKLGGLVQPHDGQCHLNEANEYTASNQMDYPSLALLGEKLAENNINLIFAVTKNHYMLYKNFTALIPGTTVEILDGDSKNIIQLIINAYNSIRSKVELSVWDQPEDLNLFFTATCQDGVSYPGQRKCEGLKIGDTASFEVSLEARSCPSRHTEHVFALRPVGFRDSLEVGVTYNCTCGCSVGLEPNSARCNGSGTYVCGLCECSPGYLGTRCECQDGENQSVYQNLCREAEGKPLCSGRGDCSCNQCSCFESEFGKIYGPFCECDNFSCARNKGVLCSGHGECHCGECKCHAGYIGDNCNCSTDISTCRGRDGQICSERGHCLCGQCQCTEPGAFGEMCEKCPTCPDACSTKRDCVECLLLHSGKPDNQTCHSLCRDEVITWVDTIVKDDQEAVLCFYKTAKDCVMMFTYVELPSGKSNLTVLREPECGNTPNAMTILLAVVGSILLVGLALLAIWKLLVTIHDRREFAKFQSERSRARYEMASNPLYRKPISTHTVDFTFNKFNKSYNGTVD
T4 sequence (P06756 31-1048, one chain of several): as the sequence (P06756 31-1048, chain 1 of 2) above
T2 sequence (P18084 24-799): as the sequence (P18084 24-799, chain 2 of 2) above

Binder: B1
binding result [1]: no binding | binding result [2]: no binding | binding result [3]: binds | binding result [4]: no binding

Binder: B2
binding result [5]: no binding | binding result [6]: no binding

Binder: B3
binding result [7]: binds

binding result [8]: binds
Binder: YRCTLNSPFFWEDMTHECHA (disulfide 3-18 (inferred), also called PSI domain-mimic peptide) [synthetic tumor-homing peptide YRCTLNSPFFWEDMTHECHA (SEQ ID NO:1)]

Binder: B4
binding result [3]: no binding

Binder: B5
binding result [3]: no binding
